Test results published in patent publication US20110150901A1 (published 2011).

B1: β-Klotho walked dimer bKWD01 (designed binder)
chain: CLPDEFQCGSGRCIPQHWLCDGLNDCGDGSDEPPAHCSAPASEPPGSLCRAGEFRCSNGRCVPLTWLCDGEDDCQDNSDEKNCAQPT
B2: β-Klotho-binding monomer bKmutM28 (designed binder)
chain: CPWFHHFKCRNGQRIPLHLVCDGVPDCGDDSDETDCGDSHILPFSTPGPST
B3: β-Klotho walked dimer BK_R1c_D15 (designed binder)
chain: CLPDEFQCGSGRCIPQTWVCDGLNDCGDGSDEPPAHCSAPASEPPGSLCRSNQFTCGNGNCIPQPWVCDGEDDCGDDSDEESCKEHT
B4: BK_RI_D05 (designed binder)
chain: CAAGQFRCHNSDTCLPGAWVCDGDNDCGDNSDEASCQKRTCHSFNQFECRNGQCIPLHLVCDGVPDCGDNSDETDCGDSHILPFSTPGPST
B5: β-Klotho walked dimer BK_R1c_D14 (designed binder)
chain: CLPDEFQCGSGRCIPQTWVCDGLNDCGDGSDEPPAHCSAPASEPPGSLCRSDEFRCGNGRCIPLTWVCDGEDDCQDSSDETGCTTPGHT

Assays:
[1] = target: T1, recombinant human β-Klotho (UniProt Q86Z14 53-996); assay: ELISA
T1 sequence (Q86Z14 53-996): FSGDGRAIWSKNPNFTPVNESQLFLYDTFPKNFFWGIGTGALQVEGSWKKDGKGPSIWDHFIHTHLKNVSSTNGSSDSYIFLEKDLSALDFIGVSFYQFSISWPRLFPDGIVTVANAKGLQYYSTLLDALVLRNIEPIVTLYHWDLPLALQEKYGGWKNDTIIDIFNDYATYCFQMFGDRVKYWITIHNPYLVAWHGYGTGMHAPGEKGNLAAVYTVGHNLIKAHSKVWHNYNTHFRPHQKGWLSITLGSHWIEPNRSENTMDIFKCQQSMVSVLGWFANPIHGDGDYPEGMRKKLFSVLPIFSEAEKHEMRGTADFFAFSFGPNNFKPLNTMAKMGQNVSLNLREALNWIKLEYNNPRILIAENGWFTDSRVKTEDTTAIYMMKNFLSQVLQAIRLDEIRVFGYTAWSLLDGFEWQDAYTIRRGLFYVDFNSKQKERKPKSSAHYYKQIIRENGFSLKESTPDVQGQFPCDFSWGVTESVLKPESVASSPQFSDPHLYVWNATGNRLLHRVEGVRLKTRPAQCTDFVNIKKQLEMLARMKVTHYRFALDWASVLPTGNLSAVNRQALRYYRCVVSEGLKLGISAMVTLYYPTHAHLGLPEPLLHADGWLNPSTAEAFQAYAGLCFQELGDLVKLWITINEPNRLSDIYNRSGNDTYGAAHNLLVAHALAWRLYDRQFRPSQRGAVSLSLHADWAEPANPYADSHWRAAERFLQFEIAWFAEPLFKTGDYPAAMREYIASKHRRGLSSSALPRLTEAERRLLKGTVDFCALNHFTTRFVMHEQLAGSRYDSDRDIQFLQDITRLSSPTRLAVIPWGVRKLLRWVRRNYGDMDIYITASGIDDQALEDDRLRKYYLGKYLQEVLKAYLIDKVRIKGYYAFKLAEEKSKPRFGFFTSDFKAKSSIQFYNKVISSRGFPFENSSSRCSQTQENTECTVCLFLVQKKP

[2] = target: T1, recombinant human β-Klotho; assay: binding
huR1b = assay: ELISA
huR4 [3] = assay: ELISA
huR4 [4] = assay: Alphascreen inhibition; FGF21/BK+R4
[5] = target: T1, recombinant human β-Klotho; assay: ELISA; remark: listed apart in the source

Row | Binder | EC50 [2] [nM] | EC50 (huR4 [3]) [nM] | also measured
1 | B1 | 0.05 | – | EC50 [1]: < 0.4 nM
2 | CLSDQFTCRSTNICLPLQWVCDGDDDCEDNSDEEDCSAPASEPPGSL (designed binder) [R1c_M31] | – | ~300 | EC50 (huR1b): 112 nM; IC50 (huR4 [4]): 5000 nM
3 | CGAGQFTCRDTNICISRAWRCDGVDDCEDNSDEADCSQDPEFHKV (designed binder) [R1c_M08] | – | – | EC50 (huR1b): 17 nM
4 | B2 | – | – | EC50 [5]: 214 nM
5 | B3 | 9.1 | – | –
6 | CRLNEFPCGSGSCISLHWVCDSVPDCRDDSDETDCPERT (designed binder) [R1c_M33] | – | ~300 | –
7 | B4 | – | 45.1 | –
8 | B5 | 23 | – | –
